The subject of one series is Isobutanol Production. In words: Simple shake flask fermentation, final relative isobutanol concentration. Format: cell-based. As to conditions: enzyme on vector, final concentration. From the text: This improvement in isobutanol production is expected to increase with multiple copies of the Se1_NKR_v1 variant enzyme incorporated into the host cell genome.
Series [1] has as its system isobutanol producing yeast strains. In words: Genome scale metabolic modeling (iMM904) of isobutanol yield, batch simulation. Also noted: species or system S. cerevisiae. Conditions: cells with 16 fewer copies of the enzyme, 36% less protein. The procedure: The iMM904 metabolic reconstruction of S. cerevisiae metabolism served as the basis of the model. The model consists of a matrix of stoichiometric coefficients that represent metabolic and transport reactions encoded by 904 genes. Reactions were added as new columns to the matrix while new rows were added for additional metabolites. The native pathway for making isobutanol in the yeast mitochondria was turned off. A summary of these changes is found in Table 2 below. With these changes made, the maximum isobutanol yield from glucose in the model was approximately 0.38 g/g. If the model was altered to not produce glycerol, the yield increased to 0.41 g/g.
With more reactions than metabolites, metabolic networks have a near infinite number of solutions for any given condition. In flux balance analysis, the flux distribution is obtained by finding the solution that maximizes an objective function. […] Each flux is bounded by known limits of each reaction, though the bounds are mostly set by thermodynamic reversibility. […]
While all other reactions in the isobutanol pathway were set by reversibility only, the upper bound of flux through NKR (vnkr) was set by the kinetics of Se1 and Se2 NKR. Flux was calculated by the following equation: […]
The benefits of improving either NKR enzyme in a strain with an equal number of both was calculated to predict which enzyme was best to engineer. […]

Series [2] can be described thus: KARI enzyme Ki assay (product inhibition) with NADH, purified enzymes. Format: biochemical, Slackia exigua. Conditions: for IC50 / Ki: 1 mM 2-acetolactate, 0-40 mM R-DHIV. The procedure:
(§1) In this example, three different KARI Gen6 variant enzymes (v1, v48, and v65) and parent enzyme Se1_NKR_gen 6 were screened for their activity with NADH as cofactor. The enzymes were expressed E. coli, and resulting transformants were cultivated in shake flask fermentations as described below and samples were taken after 44h, centrifuged at 4000×g for 10 mins at 4° C. and the cell pellets were stored at −80° C. until analysis. The pellets were lysed by bead beating and the lysates were analyzed by KARI activity assay as described below using NADH and NADPH as cofactors.
(§2) KARI Enzyme Assay: The assay and no substrate control reactions were performed in triplicate for each sample. For the KM assay, the reaction samples comprised 100 mM potassium phosphate, pH 6.8 or 7, 10 mM MgCl2, 1 mM DTT, 200 μM NADH, 0-10 mM 2-acetolactate, and 0.1 mg/mL of enzyme. For the Ki assay, the reaction samples comprised 100 mM potassium phosphate, pH 6.8 or 7, 10 mM MgCl2, 1 mM DTT, 200 μM NADH, 1 mM 2-acetolactate, 0-40 mM R-DHIV, and 0.1 mg/mL of enzyme. For the no substrate controls, the 2-acetolactate was substituted with water. 10 μL of each lysate were transferred into a 96 well half area assay plate. The reaction was started with 90 μL of reaction buffer to each well using a multichannel pipette. The samples were mixed immediately. The samples were read at 340 nm every 10 seconds for 5 minutes.
(§3) The purified enzymes encoded by Se1_NKR_Gen6 (Se1), Se1_NKR_v1 (v1), Se1_NKR_v48 (v48), and Se1_NKR_v65 (v65) under two conditions: 33° C. at pH 6.8 and 30° C. at pH 7 were characterized.
In order to determine the impact of all three parameters (kcat, KM, and Ki) to more closely determine the impact of the new variants in vivo, the catalytic efficiency for each enzyme using the KM apparent, which is equal to KM*(1+[product]/Ki), was calculated. […] At this DHIV concentration level, in vivo, at 33° C., pH 6.8, m48 would be 157%, Se1_NKR_v1 would be 139%, and Se1_NKR_v65 would be 118% improved compared to Se1_NKR. For example, in vivo, cells expressing Se1_NKR-v48, it would be expected that 16 fewer copies of the enzyme could potentially achieve 36% less protein while achieving 0.35 g/g yeast efficiency.

The nature of series [3]: KARI enzyme KM assay with NADH, purified enzymes. It is filed as biochemical, Slackia exigua. Conditions: for Vmax: 0.1 mg/mL of enzyme. The protocol: as §1, §2, §3
Setting [4] is: generally, under the two conditions.

B1: V48: Se1_NKR Gen6 variant with mutations G31A, M77I, Q330N as printed in Table 5; e.g. SEQ ID NO: 92 (protein, listed as Slackia exigua)
chain: MSVKTKEKEMAVTILYEQDVDPKVIQGLKVAIIGYGSQGHAHALNLMDSGVDVRVGLREGDSDWKTAEEAGLKVTDIDTAAEEADVIMVLVPDEVQPKVYQEHIAAHLKAGNTLAFAHGFNIHYGYIVPPEDVNVIMCAPKGPGHIVRRQFTEGSGVPDLACVQQDATGNAWDIVLSYCWGVGGARSGIIKATFAEETEEDLFGEQAVLCGGLVELVKAGFETLTEAGYPPELAYFECYHEMKMIVDLMYESGIHFMNYSISNTAEYGEYYAGPKVINEQSREAMKEILKRIQDGSFAQEFVDDCNNGHKRLLEQREAINTHPIETTGARIRSMFSWIKKEDLEHHHHHH
modifications: SITE 1..350 Se1_NKR_v48 protein
As to B1, in the series with Isobutanol Production, the “Isobutanol Concentration relative to Se1_NKR control (WT)” value worked out at 104%. The “expected yield (printed: yeast efficiency)” value in series [1] is listed as 0.35 g/g. In series [2] (1 mM DHIV, 33° C., pH 6.8), the “catalytic efficiency using KM apparent = KM*(1+[product]/Ki), compared to Se1_NKR” value is reported as 157%. Further, in series [2] (30° C., pH 7), the IC50 is 2450 µM and affinity was put at a Ki of 996 µM. Also, in series [2] (33° C., pH 6.8), the IC50 stood at 3030 µM and the affinity corresponds to a Ki of 1050 µM. In addition, the “catalytic efficiency (KM apparent) versus increasing concentrations of DHIV (FIG. 14A-B)” value in series [2] (both conditions (33° C., pH 6.8 and 30° C., pH 7.0)) is “highest catalytic efficiencies”. The “Ki for DHIV, comparison of the variants” value in series [2] (setting [4]) was “best (highest)”. In series [3] (30° C., pH 7), the Kcat worked out at 717 s⁻¹, the Km is 683 µM and the Vmax was 2.11 mM/s. Further, in series [3] (33° C., pH 6.8), the Kcat came out at 647 s⁻¹, the Km is 533 µM and the Vmax is 1.90 mM/s. The “rate (kcat or VMAX), comparison of the variants” value in series [3] (setting [4]) is listed as “best (highest)”.

The values above are taken from patent US20260152729A1, “NOVEL NKR VARIANTS FOR INCREASED PRODUCTION OF ISOBUTANOL” (Gevo, Inc., priority 2020, published 2026).
